The target of assay [1] is T1, Human IL-4Rα overexpressed on HEK293T cells (Homo sapiens (Human)., UniProt P24394).
T1 construct: IL-4 receptor alpha (IL-4Rα), human, overexpressed on HEK293T cells; also called IL-4Ra; IL-4 receptor alpha; source: HEK293T, lentiviral transduced (IL4R-EGFP), on cells
The experiment in a line: flow cytometry on cells; human IL-4Rα-overexpressing HEK293T cells, 2x10^5 cells/tube in PBS; seven-point curve; Dup-scFv detected with anti-6xHIS antibody and Alexa Fluor-647 anti-mouse IgG, dupilumab with Alexa Fluor-647 anti-human IgG; fitted in GraphPad Prism 8. As to conditions: one partner purified.

The target in assay [2] is T1, Human IL-4Rα overexpressed on HEK293T …. Briefly: cell-based or functional assay.
For another assay, the target named is T2, Biotinylated IL-4Rα (Homo sapiens (assumed), UniProt P24394, biotin).
T2 construct: IL-4 receptor alpha (IL-4Rα); Probably a soluble extracellular construct of the human receptor (surmised); also called IL-4Ra; immobilized IL-4Rα
Briefly: SPR; iMSPR-ProX; biotinylated IL-4Rα immobilised on the sensor chip (A-Dex100) at 169.7 RU; Dup-scFv at 1.56-100 nM; regeneration with 10 mM glycine-HCl pH 1.5; 1:1 kinetic binding model. As to conditions: both partners purified. A general note: In SPR one partner is held on a chip, and binding of the other changes the refractive index at the surface.

T1 sequence (P24394 26-825): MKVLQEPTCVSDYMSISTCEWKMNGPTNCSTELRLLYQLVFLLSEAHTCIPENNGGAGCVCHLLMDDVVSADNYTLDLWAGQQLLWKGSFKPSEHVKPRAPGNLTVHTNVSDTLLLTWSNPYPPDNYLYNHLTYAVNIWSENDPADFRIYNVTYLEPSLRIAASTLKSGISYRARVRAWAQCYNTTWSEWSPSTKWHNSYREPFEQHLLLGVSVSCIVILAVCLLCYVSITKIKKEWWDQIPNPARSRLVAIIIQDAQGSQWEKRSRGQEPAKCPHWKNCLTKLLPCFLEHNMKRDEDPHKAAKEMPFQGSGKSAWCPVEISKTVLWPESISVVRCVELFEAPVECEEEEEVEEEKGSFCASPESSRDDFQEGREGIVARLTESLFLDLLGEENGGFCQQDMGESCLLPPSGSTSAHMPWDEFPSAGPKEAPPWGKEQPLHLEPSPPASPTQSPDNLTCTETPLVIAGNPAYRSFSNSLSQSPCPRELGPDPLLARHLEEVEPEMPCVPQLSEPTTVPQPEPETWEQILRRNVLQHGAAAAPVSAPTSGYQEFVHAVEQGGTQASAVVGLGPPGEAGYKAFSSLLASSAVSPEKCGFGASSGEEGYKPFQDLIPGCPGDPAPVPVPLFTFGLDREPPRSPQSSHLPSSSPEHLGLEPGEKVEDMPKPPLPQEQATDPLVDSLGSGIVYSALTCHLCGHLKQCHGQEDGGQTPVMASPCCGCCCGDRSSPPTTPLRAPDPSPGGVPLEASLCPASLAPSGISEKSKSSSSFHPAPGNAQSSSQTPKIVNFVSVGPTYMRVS
T2 sequence (P24394 26-825): as above

B1: Dup-scFv with HDEL (single-chain variable fragment of dupilumab produced by Nicotiana benthamiana) (scFv, V domains shown)
VH: EVQLVESGGGLEQPGGSLRLSCAGSGFTFRDYAMTWVRQAPGKGLEWVSSISGSGGNTYYADSVKGRFTISRDNSKNTLYLQMNSLRAEDTAVYYCAKDRLSITIRPRYYGLDVWGQGTTVTVSS
VL: DIVMTQSPLSLPVTPGEPASISCRSSQSLLYSIGYNYLDWYLQKSGQSPQLLIYLGSNRASGVPDRFSGSGSGTDFTLKISRVEAEDVGFYYCMQALQTPYTFGQGTKLEIK
notes: VH region of dupilumab; linker, printed as (GGGGS)4 / 4 x G4S; VL region of dupilumab; The form without HDEL is GenBank PP711327; also called dupilumab-scFv; source: N. benthamiana leaves, Agrobacterium-mediated transient expression with p19, purified (Ni-NTA); not shown: His6, C-terminal, kept
B1 returned an EC50 in assay [1] of 17.3 nM. Moreover, in assay [2], the “IL-4-induced CCL26 mRNA (qPCR; more than 3000-fold with IL-4 alone) in HNECs with Dup-scFv 20 μg/ml on the apical side” value is 1790 fold. This molecule also displayed a Kd in the assay with Biotinylated IL-4Rα of 0.476 nM.

B2: Dupilumab (antibody, V domains shown)
VH: EVQLVESGGGLEQPGGSLRLSCAGSGFTFRDYAMTWVRQAPGKGLEWVSSISGSGGNTYYADSVKGRFTISRDNSKNTLYLQMNSLRAEDTAVYYCAKDRLSITIRPRYYGLDVWGQGTTVTVSS
VL: DIVMTQSPLSLPVTPGEPASISCRSSQSLLYSIGYNYLDWYLQKSGQSPQLLIYLGSNRASGVPDRFSGSGSGTDFTLKISRVEAEDVGFYYCMQALQTPYTFGQGTKLEIK
notes: heavy chain of dupilumab (IgG4); light chain of dupilumab; IgG4 subclass monoclonal antibody (developed by Regeneron/Sanofi)
B2 showed an EC50 in assay [1] of 1.02 nM. In assay [2], the “IL-4-induced CCL26 mRNA (qPCR; more than 3000-fold with IL-4 alone) in HNECs with dupilumab 100 μg/ml on the apical side” value turned out to be 2200 fold. For the same molecule, binding in the assay with Biotinylated IL-4Rα was characterised by a dissociation constant (Kd) of 0.133 nM.

A word on the EC50: it is the concentration that produces a half-maximal response. A lower EC50 goes with greater potency. Usually Kd stands for the constant that tells how readily two partners part at equilibrium. Read a high Kd as weaker binding.
